Substrate in series [1]: O=C(O)C(=O)[C@@H](O)[C@H](O)C(=O)CO
Put plainly: 2,5-DKG reductase kinetic / substrate specificity assay with purified enzyme. As to conditions: other: substrate 2,5-DKG, 150 mM sodium phosphate buffer, pH 6.4, 25° C. In kind it is biochemical, Corynebacterium sp. ATCC 31090. From the text: (§1) The following assay conditions were used to determine kinetic parameters: […]

Substrate in series [2]: NC(=O)C1=CN([C@@H]2O[C@H](COP(=O)(O)OP(=O)(O)OC[C@H]3O[C@@H](n4cnc5c(N)ncnc54)[C@H](OP(=O)(O)O)[C@@H]3O)[C@@H](O)[C@H]2O)C=CC1
Described as above. In kind it is biochemical, Corynebacterium sp. ATCC 31090. As to conditions: other: cofactor NADPH, 150 mM sodium phosphate buffer, pH 6.4, 25° C.
From the text: as §1

B1: 2,5-DKG reductase (Corynebacterium sp. ATCC 31090) (protein)
chain: MTVPSIVLNDGNSIPQLGYGVFKVPPADTQRAVEEALEVGYRHIDTAAIYGNEEGVGAAIAASGIARDDLFITTKLWNDRHDGDEPAAAIAESLAKLALDQVDLYLVHWPTPAADNYVHAWEKMIELRAAGLTRSIGVSNHLVPHLERIVAATGVVPAVNQIELHPAYQQREITDWAAAHDVKIESWGPLGQGKYDLFGAEPVTAAAAAHGKTPAQAVLRWHLQKGFVVFPKSVRRERLEENLDVFDFDLTDTEIAAIDAMDPGDGSGRVSAHPDEVD
notes: made in house; host or cells: Corynebacterium sp; ATCC 31090 (natural producer, native enzyme purified from cell paste, not recombinant)
What is called Km is the substrate concentration at which the rate is half of its maximum. As to B1, the Michaelis constant (Km) in series [1] worked out at 15.5 mM; in series [2], 33.7 µM.

These data come from patent US4757012A, “Ascorbic acid intermediates and process enzymes” (Genentech, Inc., priority 1984, dated 1988).
